# B1: Multidrug efflux pump accessory protein AcrZ (Escherichia coli (strain K12)), P0AAW9 (parent)
# chain: MLELLKSLVFAVIMVPVVMAIILGLIYGLGEVFNIFSGVGKKDQPGQNH
# partner: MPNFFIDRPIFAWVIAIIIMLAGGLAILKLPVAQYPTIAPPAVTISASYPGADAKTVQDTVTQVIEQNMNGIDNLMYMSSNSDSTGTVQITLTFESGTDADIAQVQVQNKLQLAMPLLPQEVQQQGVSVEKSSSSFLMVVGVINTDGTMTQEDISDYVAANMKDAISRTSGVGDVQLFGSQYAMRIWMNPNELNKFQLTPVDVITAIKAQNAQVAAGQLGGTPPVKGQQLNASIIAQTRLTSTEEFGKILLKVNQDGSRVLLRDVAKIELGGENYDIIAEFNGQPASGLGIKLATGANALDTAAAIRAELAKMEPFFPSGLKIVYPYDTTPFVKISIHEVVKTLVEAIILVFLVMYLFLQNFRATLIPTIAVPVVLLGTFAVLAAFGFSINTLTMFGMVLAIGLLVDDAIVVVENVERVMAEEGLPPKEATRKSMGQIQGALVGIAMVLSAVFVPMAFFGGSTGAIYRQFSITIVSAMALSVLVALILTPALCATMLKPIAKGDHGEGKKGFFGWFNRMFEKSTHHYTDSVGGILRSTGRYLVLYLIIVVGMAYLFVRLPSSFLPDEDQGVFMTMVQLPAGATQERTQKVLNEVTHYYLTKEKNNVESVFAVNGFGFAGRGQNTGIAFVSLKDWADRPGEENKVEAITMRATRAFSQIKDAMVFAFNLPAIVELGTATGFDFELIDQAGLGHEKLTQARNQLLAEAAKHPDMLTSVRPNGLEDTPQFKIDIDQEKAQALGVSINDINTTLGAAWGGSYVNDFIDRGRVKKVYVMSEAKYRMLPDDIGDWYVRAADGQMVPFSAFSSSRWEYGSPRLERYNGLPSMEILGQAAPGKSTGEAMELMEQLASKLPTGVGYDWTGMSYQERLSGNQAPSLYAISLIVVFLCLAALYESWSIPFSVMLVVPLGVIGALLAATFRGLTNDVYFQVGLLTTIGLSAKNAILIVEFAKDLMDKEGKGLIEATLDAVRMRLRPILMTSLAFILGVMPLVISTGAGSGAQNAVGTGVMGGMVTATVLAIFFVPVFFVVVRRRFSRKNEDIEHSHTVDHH
# Variants of: B1
# Conditions: with acrb_ecoli acrB
row,effect of a mutation on the interaction,Variant
1,disrupting interaction,G30R
